Results from patent US20240189352A1 (published 2024).

T1: RAC2 P29L peptide on HLA-A*02:01 (human)
T1 peptide: FLGEYIPTV

T2: RAC2 P29L, position 6 replaced by alanine peptide on HLA-A*02:01 (human)
T2 peptide: FLGEYAPTV

T3: RAC1 P29S peptide on HLA-A*02:01 (human)
T3 peptide: FSGEYIPTV

T4: RAC2 P29L, position 1 replaced by alanine peptide on HLA-A*02:01 (human)
T4 peptide: ALGEYIPTV

T5: RAC2 P29L, position 2 replaced by alanine peptide on HLA-A*02:01 (human)
T5 peptide: FAGEYIPTV

T6: RAC2 P29L, position 3 replaced by alanine peptide on HLA-A*02:01 (human)
T6 peptide: FLAEYIPTV

T7: RAC2 P29L, position 4 replaced by alanine peptide on HLA-A*02:01 (human)
T7 peptide: FLGAYIPTV


How the values were obtained:
Assay in all cases: cytokine release
[1] = target: T1, RAC2 P29L peptide on HLA-A*02:01
[2] = target: T2, RAC2 P29L, position 6 replaced by …
[3] = target: T3, RAC1 P29S peptide on HLA-A*02:01
[4] = target: T4, RAC2 P29L, position 1 replaced by …
[5] = target: T5, RAC2 P29L, position 2 replaced by …
[6] = target: T6, RAC2 P29L, position 3 replaced by …
[7] = target: T7, RAC2 P29L, position 4 replaced by …

Row | binding result [1] | binding result [2] | binding result [3] | binding result [4] | binding result [5] | binding result [6] | binding result [7] | Binder
1 | recognises | recognises | recognises | recognises | recognises | recognises |  | RAC2-T002 (TCR, V domains shown) Valpha: AQSVTQLGSHVSVSEGALVLLRCNYSSSVPPYLFWYVQYPNQGLQLLLKYTTGATLVKGINGFEAEFKKSETSFHLTKPSAHMSDAAEYFCAVGANNLFFGTGTRLTVIP Vbeta: EPEVTQTPSHQVTQMGQEVILRCVPISNHLYFYWYRQILGQKVEFLVSFYNNEISEKSEIFDDQFSVERPDGSNFTLKIRSTKLEDSAMYFCASSEWRGSSYNEQFFGPGTRLTVL
2 | recognises |  | recognises | recognises | recognises | recognises | recognises | RAC2-T001 (TCR, V domains shown) Valpha: GENVEQHPSTLSVQEGDSAVIKCTYSDSASNYFPWYKQELGKGPQLIIDIRSNVGEKKDQRIAVTLNKTAKHFSLHITETQPEDSAVYFCAASMGNAGNMLTFGGGTRLMVKP Vbeta: EPEVTQTPSHQVTQMGQEVILRCVPISNHLYFYWYRQILGQKVEFLVSFYNNEISEKSEIFDDQFSVERPDGSNFTLKIRSTKLEDSAMYFCASSETSGASYEQYFGPGTRLTVT
